This is an account of results in US6309872A, “Polypeptides having glucoamylase activity and nucleic acids encoding same” (Novozymes Biotech, Inc, priority 2000, dated 2001).

Substrate in the series: OC[C@H]1O[C@H](O[C@H]2[C@H](O)[C@@H](O)[C@@H](O[C@H]3[C@H](O)[C@@H](O)C(O)O[C@@H]3CO)O[C@@H]2CO)[C@H](O)[C@@H](O)[C@@H]1O
Nature of the series: purified protein, by the assay type. The settings on record: other: maltotriose hydrolysis at pH 4, enzyme 11 μg/ml or 0.18 μM.

B1: Thielavia terrestris ATCC 20627 glucoamylase, wild type, recombinant (expressed in Aspergillus oryzae), SEQ ID NO:2 (Thermothielavioides terrestris NRRL 8126) (protein)
chain: PEASRVRREGEVVKRSVDSFIATESPIALSNLLCNIGSTGCHASGVASGIVVASPDKTNPDYWYTWTRDSALTFKCVVDTFTNSYDASLQAEIQNYIVAQAHLQGVSNPSGSLSDGSGLGEPKFNVDMSQFTGAWGRPQRDGPALRAIALIAYSKWLISNGYTSTASSIVWPVIKNDLAYVAQYWNNTGFDLWEEVSGSSFFTVANQHRALVEGAALATSLGTSCSACSAVAPQILCFLQSFWSPSSGYILANINENNGRSAKDANTLLGSIHTFDPAAGCDAATFQPCSDRALANHKVVTDAFRSIYSINSGIAEGSAVAVGRYPEDSYFGGNPWYLNTLAAAEQLYDALYVWKKQGSITVTSTSLAFFKDFSSSITPGTYSSSTSTYTTLYNAISAYADGYMNIVAQYAQTNGSLSEQFSKTNGEPLSAYDLTWSYAAFLTAAARRAGVVPPSWGAASANSVPAQCSATSVVGSYTSATATSFPPSQTPASSTSAGSSPASSTTATATACSTPTAVAVTFNERVTTQWGQTIKVVGDAAALGGWDTSKAVPLSAAGYTASDPLWSGTVDLPAGLAVQYKYINVAADGGVTWEADPNHSFTVPAACGTTAVTRDDTWQ
The term Km denotes the concentration of substrate that gives half-maximal velocity. With B1, the Km is 330 ± 70 µM and the kcat entry is recorded as “(5.5±0.5)×10^3 min^-1”.
